Assay [1] has as its target T1, human TIM-3 Fc fusion antigen (Sino Biologicals) (human, UniProt Q8TDQ0 22-202).
T1 construct: Bought; also called human TIM-3 ECD; not shown: Fc part of the bought fusion protein, not described
As to the kind of experiment: ELISA; TIM-3 Fc fusion coated at 1 µg/ml, antibody titrated 2-fold from 1000 nM, HRP secondary. (In general: ELISA stands for enzyme-linked immunosorbent assay.)

Assay [2] deals with T2, monomeric human TIM-3 ECD antigen (Acro Biosystems) (human, UniProt Q8TDQ0 22-202).
T2 construct: Bought; also called soluble monovalent TIM-3 antigen (Acro Biosystems, China)
In words: SPR (IBIS MX96); antibody captured on anti-human IgG Fc sensor, monomeric human TIM-3 ECD injected 2-100 nM; 1:1 Langmuir fit.

Assay [3] deals with T3, R-PE-labeled human TIM-3-Fc chimera protein (R&D Systems) (human, UniProt Q8TDQ0 22-200, conjugated to R-phycoerythrin (R-PE), sites not stated).
T3 construct: Bought; also called TIM-3-PE; soluble TIM-3-Fc; Fc part of the bought chimera not given, not described
In words: flow cytometry competition: R-PE-labelled TIM-3-Fc pre-mixed with titrated antibody, then binding to phosphatidylserine-positive apoptotic Jurkat cells (MFI); blocked ligand: phosphatidylserine; unit taken from the axis log(Concentration) µg/ml. On the technique in general: A flow cytometer gives signals particle by particle.

Assay [4] has as its target T4, cynomolgus TIM-3 ECD fused C-terminally to human IgG1 Fc (made in-house, ExpiCHO) (cynomolgus monkey (Macaca …)).
T4 construct: whole entry named
T4 chain: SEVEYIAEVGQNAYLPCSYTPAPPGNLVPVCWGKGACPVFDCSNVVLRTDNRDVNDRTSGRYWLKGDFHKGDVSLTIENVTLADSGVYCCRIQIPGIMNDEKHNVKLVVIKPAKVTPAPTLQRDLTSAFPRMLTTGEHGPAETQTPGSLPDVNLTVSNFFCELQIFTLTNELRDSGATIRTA
As to the kind of experiment: SPR (IBIS MX96); TIM-3 ECD-Fc captured on anti-human IgG Fc sensor, Fab injected 1-100 nM; 1:1 Langmuir fit.

B1: antibody 19416 (antibody, V domains shown)
VH: QVQLVESGPGLVKPSQTLSLTCTVSGGSINSGGYYWSWIRQHPGKGLEWIGYIYYSGSIYYNPSLRSRLTISVDTSKNQFSLKLSSVTAADTAVYYCATPYYYGSGSYGDYWGQGTLVTVSS
VL: DIQMTQSPATLSLSPGERATLSCRASQSVNNYLAWYQQKPGQAPRLLIYDASNRATGIPARFSGSGSGTDFTLTISSLEPEDFAVYYCQQRSNWPITFGQGTRLEIK
For orientation: EC50 means the concentration needed to bring the measured effect to its halfway point. In turn, B1 gave a concentration giving a half-maximal response (EC50) in assay [1] of 0.2 nM.

B2: antibody 20362 (antibody, V domains shown)
VH: QVTLKESGPGLVKPSQTLSLTCTVSGGSISSGGHYWSWIRQHPGKGLEWIGYISYSGSTYYNPSLKSRLTISVDTSKNQFSLKLSSVTAADTAVYYCATAYYDILTGYPFDYWGQGTLVTVSS
VL: EIVMTQSPATLSLSPGERATLSCRASQSVSSYLAWYQQKPGQAPRLLIYDASDRATGIPARFSGSGSGTDFTLTISSLEPEDFAVYYCQQRSNWPITFGQGTRLEIK
B2: the EC50 in assay [1] was 0.26 nM.

B3: antibody 19568 (antibody, V domains shown)
VH: QMQLQESGPGLVKPSQTLSLTCTVSGGSISSVGYYWNWIRQHPGKGLEFIGYIYYSGSIYYNPSLKSRVTISVDTSKNQFSLKLSSVTAADTALYYCASVGIVGASYFEYWGQGTLVTVSS
VL: EIVMTQSPATLSLSPGERATLSCRASQSVSSYLAWYQQKPGQAPRLLIYDASNRATGIPARFSGSGSGTDFTLTISSLEPEDFAVYYCQQRSNWPITFGQGTRLEIK
In assay [1], B3 displayed an EC50 of 0.38 nM.

B4: antibody 20621 (antibody, V domains shown)
VH: QVQLQQSGPGLVKPSQTLSLTCTVSGGSISSGGYYWSWIRQHPGKGLEWIGYISYSGSIYYNPSLKSRVTISVDTSKNQFSLKLSSVTATDTAVYYCATAYYDLLTGYPFDYWGQGTLVTVSS
VL: EIVMTQSPATLSLSPGERATLSCRASQSVSSYLAWYQQKPGQAPRLLIYDASNRATGIPARFSGSGSGTDFTLTISSLEPEDFAVYYCQQRSNWPITFGQGTRLEIK
With B4, in assay [1], the EC50 worked out at 0.22 nM.

B5: antibody 15086.17145 (antibody, human IgG2, kappa)
heavy: QVQLQESGPGLVKPSQTLSLTCTVSGGSISSGGYYWSWTRQHPGMGLEWIGYISYSGSIYYTPSLKSRLTISVDTSKNQFSLKLSSVTAADTAVYYCASLDSWGSNRDYWGQGTLVTVSSASTKGPSVFPLAPCSRSTSESTAALGCLVKDYFPEPVTVSWNSGALTSGVHTFPAVLQSSGLYSLSSVVTVPSSNFGTQTYTCNVDHKPSNTKVDKTVERKCCVECPPCPAPPVAGPSVFLFPPKPKDTLMISRTPEVTCVVVDVSHEDPEVQFNWYVDGVEVHNAKTKPREEQFNSTFRVVSVLTVVHQDWLNGKEYKCKVSNKGLPAPIEKTISKTKGQPREPQVYTLPPSREEMTKNQVSLTCLVKGFYPSDIAVEWESNGQPENNYKTTPPMLDSDGSFFLYSKLTVDKSRWQQGNVFSCSVMHEALHNHYTQKSLSLSPGK
light: not shown
For orientation: Kd means the equilibrium constant for the complex coming apart. As a reminder, the IC50 is the point on the concentration scale where inhibition reaches its midpoint. B5 displayed an EC50 in assay [1] of 0.125 nM. Further, the affinity in assay [2], expressed as Kd, was 19 nM. Besides, the IC50 in assay [3] is 0.651 µg/mL.

B6: Fab 20131 (Fab, V domains shown)
VH: QVQLQQSGGGLVQPGGSLRLSCAASGFTLSSYAMSWVRQAPGKGLEWVSGISGSGGSTYNADSVKGRFTISRDNSKNTLFLQMNSLRAEDTAVYYCAKIFGSYYFDYWGQGTLVTVSS
VL: not shown
notes: not shown: cleavage site not s
B6 yielded a Kd in assay [4] of 22 nM.

B7: antibody 19324 (antibody, V domains shown)
VH: QMQLQQSGGGLVQPGGSLRLSCAASGFTVSSYAMSWVRQALGKGLEWVSGISGSGGSTYYADSVKGRFTISRDNSKNTLYLQMNSLRAEDTAVYYCAKIVGATHFDYWGQGTLVTVSS
VL: not shown
Molecule B7 had an EC50 in assay [1] of 0.73 nM.

B8: antibody 20300 (antibody, V domains shown)
VH: QVQLQQSGGGLVHPGGSLRLSCAASGFTVDTYAMTWVRQAPGKGLEWVSGISGSGGSTYYADSVKGRFTISRDNSKNTLYLQMNSLRDEDTAVYYCAKIVGVTHFDYWGQGTLVTVSS
VL: not shown
B8: in assay [1], the EC50 worked out at 1.13 nM.

B9: antibody 20185 (antibody, V domains shown)
VH: QVQLVESGGGLVRPGGSLRLSCAVSGFTFSSYAMSWVRQAPGKGLEWVSGISGSGGSTYNADSVKGRFTISRDNSKNTLYLQMNSLRAEDTAVYYCAKIFGSYYFDYWGQGTLVTVSS
VL: not shown
For B9, the EC50 in assay [1] came out at 0.17 nM.

The record behind these values is patent US20190276531A1 (SYMPHOGEN A S, published 2019).
